Results as given in patent US20110028686A1 (published 2011).
Square brackets hold non-standard residues; d marks the D form. Ends that are not written are not given here. * marks the point of attachment. Fluorescein(5-NHCOCH2) = O=C(C*)Nc1ccc2c(c1)C(=O)OC21c2ccc(O)cc2Oc2cc(O)ccc21; pS = N[C@@H](COP(=O)(O)O)C(=O)O

Experiments:
[1] = biological target: T1, HisKIX (UniProt P45481 586-672); assay: FP, fluorescein-labelled peptide titrated with HisKIX, 25 C
T1 construct: range 586-672; the residue numbers fit mouse CBP; also called His-tagged CBP KIX domain; CBP KIX; not shown: amino-terminal hexahistidine tag and linker of pET15b
T1 sequence (P45481 586-672): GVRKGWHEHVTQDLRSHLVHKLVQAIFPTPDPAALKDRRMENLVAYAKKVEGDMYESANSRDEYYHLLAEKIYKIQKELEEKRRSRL

[2] = biological target: T1, HisKIX; assay: FP with HisKIX; end of the range assigned by Table 1

Row | Binder | Kd [1] [µM] | further results
1 | H-GASPHTSSGDDAPVRRL[pS]FFDILLDLYLDAPGVC(Fluorescein(5-NHCOCH2))-NH2 (designed binder, not fully specified, also called PPKID3 (phosphorylated)) [PPKID3^P] | 1.2 | fold enhancement in affinity upon phosphorylation [2]: 6 to 41 fold; fold higher affinity than KID-B^P [2]: 43 to 87 fold; ΔΔG upon phosphorylation [2]: -1 kcal/mol
2 | GMSRVTPGGDDAPVRRLSFFYILRDLYLDAPGVC(acetamidofluorescein)-NH2 (designed binder, not fully specified, also called PPKID2 (unphosphorylated)) [PPKID2^U] | 12.6 | 
3 | GLSWPTYHGDDAPVRRLSFFYILLDLYLDAPGVC(Fluorescein(5-NHCOCH2))-NH2 (designed binder, N-terminus assumed; SMILES CC[C@H](C)[C@H](NC(=O)[C@H](Cc1ccc(O)cc1)NC(=O)[C@H](Cc1ccccc1)NC(=O)[C@H](Cc1ccccc1)NC(=O)[C@H](CO)NC(=O)[C@H](CC(C)C)NC(=O)[C@H](CCCNC(=N)N)NC(=O)[C@H](CCCNC(=N)N)NC(=O)[C@@H](NC(=O)[C@@H]1CCCN1C(=O)[C@H](C)NC(=O)[C@H](CC(=O)O)NC(=O)[C@H](CC(=O)O)NC(=O)CNC(=O)[C@H](Cc1c[nH]cn1)NC(=O)[C@H](Cc1ccc(O)cc1)NC(=O)[C@@H](NC(=O)[C@@H]1CCCN1C(=O)[C@H](Cc1c[nH]c2ccccc12)NC(=O)[C@H](CO)NC(=O)[C@H](CC(C)C)NC(=O)CN)[C@@H](C)O)C(C)C)C(=O)N[C@@H](CC(C)C)C(=O)N[C@@H](CC(C)C)C(=O)N[C@@H](CC(=O)O)C(=O)N[C@@H](CC(C)C)C(=O)N[C@@H](Cc1ccc(O)cc1)C(=O)N[C@@H](CC(C)C)C(=O)N[C@@H](CC(=O)O)C(=O)N[C@@H](C)C(=O)N1CCC[C@H]1C(=O)NCC(=O)N[C@H](C(=O)N[C@@H](CSCC(=O)Nc1ccc2c(c1)C(=O)OC21c2ccc(O)cc2Oc2cc(O)ccc21)C(N)=O)C(C)C, also called PPKID5 (unphosphorylated)) [PPKID5^U] | 6.6 | 
4 | RRP[pS]YRKILNDLSSDAPGVC(acetamidofluorescein)-NH2 (also called KID-B (phosphorylated); CREB KID residues 130-148) [KID-B^P] | 51.6 | 
5 | GASDMTYWGDDAPVRRLSFFYILLDLYLDAPGVC(acetamidofluorescein)-NH2 (designed binder, also called PPKID1 (unphosphorylated)) [PPKID1^U] | 24.1 | fold change in affinity against peptide C^U [2]: 1 to 3 fold; ΔΔG relative to peptide C^U [2]: 0.1 kcal/mol
6 | GLSWPTYHGDDAPVRRL[pS]FFYILLDLYLDAPGVC(Fluorescein(5-NHCOCH2))-NH2 (designed binder, N-terminus assumed; SMILES CC[C@H](C)[C@H](NC(=O)[C@H](Cc1ccc(O)cc1)NC(=O)[C@H](Cc1ccccc1)NC(=O)[C@H](Cc1ccccc1)NC(=O)[C@H](COP(=O)(O)O)NC(=O)[C@H](CC(C)C)NC(=O)[C@H](CCCNC(=N)N)NC(=O)[C@H](CCCNC(=N)N)NC(=O)[C@@H](NC(=O)[C@@H]1CCCN1C(=O)[C@H](C)NC(=O)[C@H](CC(=O)O)NC(=O)[C@H](CC(=O)O)NC(=O)CNC(=O)[C@H](Cc1c[nH]cn1)NC(=O)[C@H](Cc1ccc(O)cc1)NC(=O)[C@@H](NC(=O)[C@@H]1CCCN1C(=O)[C@H](Cc1c[nH]c2ccccc12)NC(=O)[C@H](CO)NC(=O)[C@H](CC(C)C)NC(=O)CN)[C@@H](C)O)C(C)C)C(=O)N[C@@H](CC(C)C)C(=O)N[C@@H](CC(C)C)C(=O)N[C@@H](CC(=O)O)C(=O)N[C@@H](CC(C)C)C(=O)N[C@@H](Cc1ccc(O)cc1)C(=O)N[C@@H](CC(C)C)C(=O)N[C@@H](CC(=O)O)C(=O)N[C@@H](C)C(=O)N1CCC[C@H]1C(=O)NCC(=O)N[C@H](C(=O)N[C@@H](CSCC(=O)Nc1ccc2c(c1)C(=O)OC21c2ccc(O)cc2Oc2cc(O)ccc21)C(N)=O)C(C)C, also called PPKID5 (phosphorylated)) [PPKID5^P] | 0.534 | 
7 | GPSQPTYPGDDAPVRRLSFFYILLDLYLDAPGVC(Fluorescein(5-NHCOCH2))-NH2 (designed binder, N-terminus assumed; SMILES CC[C@H](C)[C@H](NC(=O)[C@H](Cc1ccc(O)cc1)NC(=O)[C@H](Cc1ccccc1)NC(=O)[C@H](Cc1ccccc1)NC(=O)[C@H](CO)NC(=O)[C@H](CC(C)C)NC(=O)[C@H](CCCNC(=N)N)NC(=O)[C@H](CCCNC(=N)N)NC(=O)[C@@H](NC(=O)[C@@H]1CCCN1C(=O)[C@H](C)NC(=O)[C@H](CC(=O)O)NC(=O)[C@H](CC(=O)O)NC(=O)CNC(=O)[C@@H]1CCCN1C(=O)[C@H](Cc1ccc(O)cc1)NC(=O)[C@@H](NC(=O)[C@@H]1CCCN1C(=O)[C@H](CCC(N)=O)NC(=O)[C@H](CO)NC(=O)[C@@H]1CCCN1C(=O)CN)[C@@H](C)O)C(C)C)C(=O)N[C@@H](CC(C)C)C(=O)N[C@@H](CC(C)C)C(=O)N[C@@H](CC(=O)O)C(=O)N[C@@H](CC(C)C)C(=O)N[C@@H](Cc1ccc(O)cc1)C(=O)N[C@@H](CC(C)C)C(=O)N[C@@H](CC(=O)O)C(=O)N[C@@H](C)C(=O)N1CCC[C@H]1C(=O)NCC(=O)N[C@H](C(=O)N[C@@H](CSCC(=O)Nc1ccc2c(c1)C(=O)OC21c2ccc(O)cc2Oc2cc(O)ccc21)C(N)=O)C(C)C, also called PPKID4 (unphosphorylated)) [PPKID4^U] | 12.1 | 
8 | GLSWKTDPGDDAPVRRLSFFYILLDLYLDAPGVC(Fluorescein(5-NHCOCH2))-NH2 (designed binder, N-terminus assumed; SMILES CC[C@H](C)[C@H](NC(=O)[C@H](Cc1ccc(O)cc1)NC(=O)[C@H](Cc1ccccc1)NC(=O)[C@H](Cc1ccccc1)NC(=O)[C@H](CO)NC(=O)[C@H](CC(C)C)NC(=O)[C@H](CCCNC(=N)N)NC(=O)[C@H](CCCNC(=N)N)NC(=O)[C@@H](NC(=O)[C@@H]1CCCN1C(=O)[C@H](C)NC(=O)[C@H](CC(=O)O)NC(=O)[C@H](CC(=O)O)NC(=O)CNC(=O)[C@@H]1CCCN1C(=O)[C@H](CC(=O)O)NC(=O)[C@@H](NC(=O)[C@H](CCCCN)NC(=O)[C@H](Cc1c[nH]c2ccccc12)NC(=O)[C@H](CO)NC(=O)[C@H](CC(C)C)NC(=O)CN)[C@@H](C)O)C(C)C)C(=O)N[C@@H](CC(C)C)C(=O)N[C@@H](CC(C)C)C(=O)N[C@@H](CC(=O)O)C(=O)N[C@@H](CC(C)C)C(=O)N[C@@H](Cc1ccc(O)cc1)C(=O)N[C@@H](CC(C)C)C(=O)N[C@@H](CC(=O)O)C(=O)N[C@@H](C)C(=O)N1CCC[C@H]1C(=O)NCC(=O)N[C@H](C(=O)N[C@@H](CSCC(=O)Nc1ccc2c(c1)C(=O)OC21c2ccc(O)cc2Oc2cc(O)ccc21)C(N)=O)C(C)C) [PPKID8^U] | 3.1 | fold enhancement in affinity over KID-AB^U [2]: ≥ 37 fold; fold enhancement in affinity over KID-B^U [2]: ≥ 96 fold; fold enhancement in affinity over peptide C^U [2]: 7 to 14 fold
9 | H-GMSRVTPGGDDAPVRRL[pS]FFYILRDLYLDAPGVC(Fluorescein(5-NHCOCH2))-NH2 (designed binder, not fully specified, also called PPKID2 (phosphorylated)) [PPKID2^P] | 0.729 | 
10 | GLSPYTEWGDDAPVRRLSFFYILLDLYLDAPGVC(acetamidofluorescein)-NH2 (designed binder) [PPKID7^U] | 2.3 | 
11 | GASDMTYWGDDAPVRRL[pS]FFYILLDLYLDAPGVC(Fluorescein(5-NHCOCH2))-NH2 (designed binder, also called PPKID1 (phosphorylated)) [PPKID1^P] | 0.591 | fold enhancement in affinity upon phosphorylation [2]: 6 to 41 fold; fold higher affinity than KID-B^P [2]: 43 to 87 fold; ΔΔG upon phosphorylation [2]: -2.2 kcal/mol
